Consider 30 sequences from the nanobody polyreactivity screen of Harvey et al. (2022).

This series is described as follows: yeast display, Sf9 membrane polyspecificity reagent, FACS + sequencing; frameworks hold sequencing errors. In outline: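 Genes from sorted yeast were amplified by colony PCR, read by MiSeq 2 × 250 sequencing and filtered on CDR length. These cells carried a synthetic nanobody library in Saccharomyces cerevisiae BJ5465 and were sorted by FACS into low and high (top ~1%) gates on anti-HA and streptavidin fluorescence. Polyreactivity is labelled according to the gate of origin.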
As for “QVQLVEAGGGLVQAGGSLRLSCAASGSIFVGYAMGWYRPAPGKEREFVAAINYRGGATYYADSVKGRFTISRDNAKNTDYLQMNSLQPEDTAVYYCAVGGWVIYPASLDYWGQGTQVTVSS”, the “polyreactivity (PSR sort gate)” value is reported as “low polyreactivity”. Under “QVQLVEAGGGLVQAGGSLRLSCAASGYTFGKNAMGWYRQAPGKERELVAAITYSGGSTYYADSVKGRFTISRDNAKNTVYLQMNSLKPEDTAVYYCAADNPSDVYDTWVYYWGQGTQVTVSS” stands “high polyreactivity”; under “QVQLVEAGGGLVQAGGSLRLSCASSGNTFYPYAMGWYRQAPGKERELVAVITSGTDTYYADSVKARFTISRDNAKNTVYLQMNSLKPEDTAVYYCAASLYWRYGYWGQGTQVTVSS”, “high polyreactivity”. Under “QVQLVEAGGGLVQAGGSLRLTCAASGPIFLSKAMGWYRQAPGTERELVAAINSGGNTDYADSVKARFTISRDNEKNTFYLQMNSLKPEDTAVYYCAADAFSWDHDYWGQGTQVTVSS” stands “low polyreactivity”; under “QVQLVEAGGGLVQAGGSLRLTCAASVRTFTGYAMGCYRQAPGTERELVAAMTLSGGSTYYADSVKGRFTISRDNAKNTVYLQMNSLKPEDTAVFYCAAKWWHFYPYDYWGQGTQVTVSS”, “high polyreactivity”. Under “QVQLVEAGGGLVQAGGTLRLSCDPSGLIFGLYAMGWYRHAPGKERELVAAISESGGGITYYADSVKGRFTISRDNAKNTVYLQMYSLKPEDTAVYYCNADRYVWAGFDFSTYDYWGQGTLVTVSS” stands “low polyreactivity”. Turning to “QVQLVEAGGGLVQSGGSLRLSCAASGSIFNIYAMGWSRQAAGKDRELVAVISSRGGRSYYADSVKGRFTISRDNAKNTVYLQMTSLKPEDTAVYYCAAGYLRQGYRGYDYWGQGTQVTVSS”, the “polyreactivity (PSR sort gate)” value was “high polyreactivity”.

For “QVQLVEAGGGVVQAGGSLRLSCAASGIIFYPYALGWYRQAPGKERELVADITSGGGTNYADSVKGRFTISRDNAKNTVYLQMNSLKPEDTAVYDCAAEVRGYHWGTYYEFYYWGQGTQVTVSS”, the “polyreactivity (PSR sort gate)” value is listed as “low polyreactivity”. Under “QVQLVEAVGGLVQAGGSLRLSCAASGNTYYGNAMGWYRQAPGKEREFVAAITIRTGSTYYADSVKGRFTISRDNAKNTVYLQMNSLKPDDTAVYYCAADAYWRWNWYDYWGQGTQVTVSS” stands “high polyreactivity”; under “QVQLVEEGGGLVQAGGSLSLSCAASGRIFKTNSMGWYIQAPGKERELVAGSTDSGDSTYYADSVKGRFTISRDNAKNTVYLQMNSLKPEDTAVYYCATDPASPYIYDYWGQGTQVTVSS”, “low polyreactivity”. As to “QVQLVEKGGGLVQAGGSLRLSCAASGRTFRSNAMGWYRQAPGKERELVAAIRSRGGSTYYADSVKGRFTISRDNAKNTVYLQMNSLKPEDTAVYYCAAKHGSTSHDSWGQGTQVTVSS”, the “polyreactivity (PSR sort gate)” value was “high polyreactivity”. With “QVQLVEPGGGLVQAGGSLRLSCAASGFTFYDYAMGWYRQAPGKERELVARINGGGGTNYADSVKGRFTISRDNAKNTVYLQMNSLKPEDSAVYYCAADLYFRQGDVDLLRYDYWGQGTQVTVSS”, the “polyreactivity (PSR sort gate)” value is listed as “low polyreactivity”. Under “QVQLVEPGGGLVQAGGSLRLSCAASGSIFAYYVMGWYRQAPGKERELVAGISFSGGTTYYADSVNGRFTISRDNAKNTVYLQMNSLKPEDTAVYYCNADPDHREFDYWGQGTQVTVSS” stands “low polyreactivity”. Take “QVQLVESAAGLVQAGGSLRLSCAASGGIFHGYAMGWYRHAPGKERELVAAISWSTGSTYYADSVKGRFTISRDNAKNTVYLQMNSLKPEDTAVYYCAARYLSGTSRYYYWGQGTQVTVSS”: the “polyreactivity (PSR sort gate)” value is given as “high polyreactivity”. Under “QVQLVESAAGLVQAGGSLRLSCAASGSTFGHYTMGWYRQAPGKERDLVAAISWSGGRTYYADSVKGRFTISRDYAKNTVYLQMNSLKPEDTAVYYCYVGYRGWSVNSWGQGTQVTVSS” stands “high polyreactivity”; under “QVQLVESAAGLVQAGGSLRVSCAASGSSFRLYAMGWYRPAPGKEREFVARIRWRGGSTNYADSVKGRFTISRDNAKNNVYLQMNSLKTEDTAVYYCAAKQGTVRAHTYVPWYDYWGQGTQVTVSS”, “high polyreactivity”. Under “QVQLVESAAGLVQAGGSLSLICAASGYIFATYAMGWYIQAPGTETELVAAITSGGITNYADSVKGRFTISRDNAKNTVYLQMNSLKPEDTAVYYCATGRRRYYFREYYYWGQGTQVTVSS” stands “high polyreactivity”; under “QVQLVESAGCLVQAGASLRLSCAASGGTFRLYAMGWSRQAPGKERELVAAITGSSGGTYYADSVKGRFTISRDNAKNTVYLQMNSLKPEDTAVYYCAASSSYWGQGTQVTVSS”, “low polyreactivity”. With “QVQLVESAGGIDQAGGRLRLSSAASGGIFTPYAMGCYRQAPGKDRELVATISSDGSTNYADSVKGRFTISRDNAKNTVYLQMNSLKPEDTAVYYCNIDRHKVAGTLPGWWYDYLGQGTQVTVSS” the entry was “low polyreactivity”; with “QVQLVESAGGLFQAGGSLRLSCAASGRTFYSNTMGWYRQAPGKEREFVAAIPSIVGSTYYADSVKGRFTISRDNSKNTVYLQMKSLKPEDTAVYDCAVTDYYSYLLRYDSWGQGTEVTVSS”, “low polyreactivity”; with “QVQLVESAGGLVQAGASLRLSCAASGGTSPVYAMGWYRQAPGKERELVAAIRYSGGRTNYADSVKGRFTISRDNAKNTVYLQMNSLKPEDTAVYYCAARGYRYQGDYWGQGTQVTVSS”, “high polyreactivity”.

Turning to “QVQLVESAGGLVQAGASLRLSCAASGSTFYYYAMGWYRQAPGKERELVAAIDWDSGSTYYADSVKGRFTISRDNAKNTVFLQMNSLNPEDTAVYYCAADSWFSDFDYWGQGTQETVSS”, the “polyreactivity (PSR sort gate)” value is recorded as “high polyreactivity”. Consider “QVQLVESAGGLVQAGASLRLSCDASGSTFVYYDMGWYRQAPGKERELVASISWSGGSTSYSDSVKGRFTISRDNAKNTVYLQMNSLKPEDTAVYYCNKSNPDYDGLAIHAFDYWGQGTQVTVSS”, for which the “polyreactivity (PSR sort gate)” value is listed as “low polyreactivity”. With “QVQLVESAGGLVQAGGILRLSCAASGGIFRGYAMGWYRQAPGKERELVATIRSSGRTNYADSVKGRFTISRDNAKNTVYLQMNSLKPEDTAVYYCNKRRWWQYDRWGDWVLGGDDYWGQGTQVTVSS” the entry was “low polyreactivity”; with “QVQLVESAGGLVQAGGILRLSCAASGRIFTRNAMGWYRQAPGKERELVAAISSSSGSKYYADSVKGRFTISRDNAKNTVYLQMNSLKPEDTAVYYCAARSYYYSWGYDHWGQGTQVTVSS”, “high polyreactivity”. With “QVQLVESAGGLVQAGGRLRLSCAASGFTFKKYAMGWYRQAPGKERELVASITWSGGSTSYADSVKGRFTISRDNAKNTVYLQMTSLKPEDTAVYYCAAATFVYRLRYNRFDYGGQGTQVTVSS” the entry was “high polyreactivity”. Regarding “QVQLVESAGGLVQAGGSHRLSCAASGFIFDSYAMGCYRPAPGKERELVAAITYSGSSTYYADSVKGRFTISRDNAKNTVYLQMNSLKPEDTGVYYCAAVWRYSHLYGYWGQGTQVTVSS”, the “polyreactivity (PSR sort gate)” value is given as “high polyreactivity”.

In the case of “QVQLVESAGGLVQAGGSLRISCAASGIIFARYSMGWYRPAPGKERELVAAINSSGGDTYYADSVKGRFTISRDTANNTVYLQMISLKPEDPAVYYCAKVISYLVVLPRTERYEGDYWGQGTQVTVSS”, the “polyreactivity (PSR sort gate)” value was “low polyreactivity”.

In the case of “QVQLVESAGGLVQAGGSLRLICAASGFTSNVYTMGWYRQAPGKERELVAAITSGGSTNYADSVKGRFTISRDNAKNTVYLQMNSLKPEDTAVYYCNTDVKEYFHHEGYPLRWEYDYWGQGTQVTVSS”, the “polyreactivity (PSR sort gate)” value is listed as “low polyreactivity”. In the case of “QVQLVESAGGLVQAGGSLRLSCAASGFIFEWYTMGWYRHAPGKERELVARISSDGSTTYADSVKGRFRISRDNAKNTVYLQMNSLKPEDTAVYYCAADVTYPGLKYIFDYWGQGSQVTVSS”, the “polyreactivity (PSR sort gate)” value is reported as “low polyreactivity”.
